Experimental data reported in article PMC11340043, “Antagonist anti-LIF antibody derived from naive human scFv phage library inhibited tumor growth in mice” (BMC Immunology, 2024).
One block for each binder: values may come before it.

Key:
human gp130-his [1] = target: T1, human gp130-his (human, UniProt P40189 23-619); assay: ELISA; receptor competitive ELISA: wells coated with LIFR-his or gp130-his (100 ng/well); hLIF-hFc (50 ng) pre-mixed with recombinant antibody at 4 C for 1 h, then 37 C for 1 h on the plate; detected with HRP goat anti-human IgG; conditions: both partners purified
T1 construct: gp130 (interleukin-6 receptor subunit beta), human; source: bought: Sino Biological
T1 sequence (looked up): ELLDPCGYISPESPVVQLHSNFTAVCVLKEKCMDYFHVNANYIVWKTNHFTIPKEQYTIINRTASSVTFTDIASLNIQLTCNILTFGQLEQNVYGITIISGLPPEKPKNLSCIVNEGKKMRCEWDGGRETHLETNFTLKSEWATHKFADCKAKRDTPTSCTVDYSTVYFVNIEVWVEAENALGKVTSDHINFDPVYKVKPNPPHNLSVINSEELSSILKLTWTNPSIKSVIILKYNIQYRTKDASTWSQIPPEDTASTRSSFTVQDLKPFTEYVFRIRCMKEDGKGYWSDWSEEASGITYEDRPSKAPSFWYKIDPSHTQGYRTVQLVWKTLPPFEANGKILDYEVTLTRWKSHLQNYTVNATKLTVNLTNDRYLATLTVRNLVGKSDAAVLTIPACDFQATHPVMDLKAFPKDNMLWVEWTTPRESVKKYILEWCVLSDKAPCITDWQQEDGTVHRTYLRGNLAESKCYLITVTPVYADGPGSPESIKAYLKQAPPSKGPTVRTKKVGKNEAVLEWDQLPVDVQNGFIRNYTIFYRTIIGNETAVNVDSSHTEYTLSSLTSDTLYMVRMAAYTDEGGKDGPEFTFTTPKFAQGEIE

human gp130-his [2] = target: T1, human gp130-his; assay: SPR; Biacore 8K, CM5 chip with anti-mouse IgG, 1G11 captured; 200 nM hLIF flowed, followed by 500 nM LIFR-his or gp130-his; 25 C, pH 7.4, 10 mM HEPES, 150 mM NaCl, 3 mM EDTA, 0.05% Tween-20; conditions: both partners purified

binding result (human gp130-his [1]): binds
B1: human LIF with human IgG1-Fc tag (Fc fusion)
chain: not shown
notes: also called hLIF-hFc; LIF-hFc

binding result (human gp130-his [2]): binds
B2: human LIF (ligand)
chain: not shown
notes: also called hLIF; source: bought: Genscript
